In patent publication EP4671273A1:

Experiments:
[1] = molecular target: hPD-1 expressed on Jurkat cells (human) (UniProt Q15116); assay: flow cytometry on Jurkat PD-1 cells, competitor nivolumab at 100x molar excess
[2] = molecular target: hPD-1 expressed on Jurkat cells (human) (UniProt Q15116); assay: flow cytometry on Jurkat PD-1 cells, competitor pembrolizumab at 100x molar excess

Chain of hPD-1 expressed on Jurkat cells (human) (Q15116 25-288): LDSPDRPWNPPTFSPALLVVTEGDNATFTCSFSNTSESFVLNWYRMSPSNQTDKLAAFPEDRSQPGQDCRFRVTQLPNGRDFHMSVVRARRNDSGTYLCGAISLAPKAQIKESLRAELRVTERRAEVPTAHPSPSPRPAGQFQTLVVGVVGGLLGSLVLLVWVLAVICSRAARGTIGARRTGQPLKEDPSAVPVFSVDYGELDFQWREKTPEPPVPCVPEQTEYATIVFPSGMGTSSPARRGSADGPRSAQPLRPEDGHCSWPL

B1: XVT458-z2-m6 (antibody, human IgG1, V domains shown)
VH: VQLVQSGAEVKKPGASVKVSCKASGYTFTNFYIHWVRQAPGQGLEWMGSIYPNYGITAYNQKFKDRVTMTVDTSTSTAYMELRSLRSDDTAVYYCARGYSYAMDYWGQGTTVTVSS
VL: DIQMTQSPSSVSASVGDRVTITCSASQGISGDLNWYQQKPGKAPKLLIYHTSQLHSDVPSRFSGSGSGTDFTLTISSLQPEDFATYYCQGYSKDLLTFGGGTKLEIK
[1]
  signal inhibition in %: 8.66%
[2]
  signal inhibition in %: 8.66%
